Test system: PPIs identified as affected by the SH3 domain deletions
Assay: Liquid DHFR-PCA low-throughput validation of PPIs affected by SH3 deletion (Fig. S1D-E)
Format: cell-based, Saccharomyces cerevisiae
Details: label = prey, liquid DHFR-PCA, prey _1 = lost, _2 = gained in screen
In short: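 Growth at 30 °C was tracked by OD each 15 min over 72 h in agar-free PCA selection medium, starting at 0.1 OD. Cells were diploids selected after mating, first cultured 48 h with NAT and HPH in synthetic complete MSG medium, pH 6.0.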

Molecule | Ratio (Deletedscore / WTscore) (bait BEM1-1) | Ratio (Deletedscore / WTscore) (bait BEM1-2) | Ratio (Deletedscore / WTscore) (bait MYO3) | Ratio (Deletedscore / WTscore) (bait MYO5) | Ratio (Deletedscore / WTscore) (bait RVS167) | other results
YKL051W_1 (protein, UniProt P35735 1-353, looked up) Protein SFK1: MIQFKSPGNWLFIVPWIAFIPWYGMLIAMLICWASQGHPIYWFMHSEQFPVYISDIGATNLRPLFISCAGWQGLGYVITVALEFFQRSGYLPFQLKKKDPSISDSTSYAEKLHSGKYLMPPYYTKDERNLIFAAFVLGSIGELALLFSSIFSTALYHRVHIAMVSVFVVFMFLSTCCLIAEYFLMGRHYASVHPLASPHFNPQSSEKSFNQDYNTVDELPWYKWKGHVWNKFTISATLKVIWLTLAVVWAICFGAINDRSKSACFEWLLAFWFGIIFMILSADFYLGGRYRQSRYFNHVESFSGYYKYDKALGLYHSEDVLPSDDNAGVIATETASSNIYNNSSSNESIQVVV | 1.076 | 0.4799 | 0.5607 | 0.761 |  | 
YER008C_1 (protein, UniProt P33332 1-1336, looked up) Exocyst complex component SEC3: MRSSKSPFKRKSHSRETSHDENTSFFHKRTISGSSAHHSRNVSQGAVPSSAPPVSGGNYSHKRNVSRASNSSQTSNFLAEQYERDRKAIINCCFSRPDHKTGEPPNNYITHVRIIEDSKFPSSRPPPDSKLENKKKRLLILSAKPNNAKLIQIHKARENSDGSFQIGRTWQLTELVRVEKDLEISEGFILTMSKKYYWETNSAKERTVFIKSLITLYIQTFEGHVPELVNWDLSLFYLDERSYQRAVITNRPGSVSPIKSPTSNFTTNTTQSVGSVPFSAPTERTRRSETESVNPVSTPASVEYHAGMKSLNKAPYSSNSTLNEVNKRYELEQQQQQEEAELRRLEEQKRLQLQKENEMKRLEEERRIKQEERKRQMELEHQRQLEEEERKRQMELEAKKQMELKRQRQFEEEQRLKKERELLEIQRKQREQETAERLKKEEQEALAKKEEEEKSKRNKVDNESYTQEINGKVDNLLEDLNAVLAEETETTPTMQNGTYVPERSTARAHDQLKKPLNIAKVESLGGSDLNDSISLSDEIAGLNTSNLSGEDQDEKNDLSFEKGDEVRYSNNFEGEAPHVYHEVSIIQEEAPAVSQKLILPEENNESEALIESKEEIKTMENIDDEVLLEILTDINWSIEDDADSMIERIDLRLAETEYLFNQNLLSLQKIGPNIRPYEDKVNDECHRIIPTLSLFLMEMSNFSNDIENVESQDNGLQVESANKKLLWNTLDELLKTVSLDEISLNQLLECPIREKNLPWMENQLNLLLKAFQAIGSDGNEVEYNLREISGLKQRLQFYEKVTKIFLNRIVEEMQKKFSNIRGQDISHDQMIRILTTLLIFSPLILFCKEISQKSYQAIVENWNVSIQPVYMELWTKKISQLQGIDTNDEKMNELSLSQLLNEWDTFRKERKTNDINPVFKNSFSLLTECLQTMRQECIVYQNFVEVFFHISSKHNFEEYIKHFNDPDAPPILLDTVKVMQSDREAAVIETQLVSRIFQPIVTRLSSYFVELVKAEPTVAPALTFYLENEIKSLESSNHEFLLSAVTRMYTQIKQVWSDNVEEQVLHFERISNATTNGEILPGILDLPVGLKNSEDLFQFAKRSMDIKDTDEGYESIELMNSSFRKLSIAATRSITHKEVNSSINPNLSDTAALNNDYMETISLLVNSNWLTEMLSMLNFNKDGIFDTSLQNVKKVFDVEKESYASFLLRDTMPKLTAFVYGVSNIIENTNNVNMTNPSRWAAYSRQNLENILLAYTSHEIETLVKRLHTHMVNDFGYHQENAINNVLCDKLWSCIQGQTVSLYLKLYTVIDKHYRGTNIRFTKNDIISAFEEYKNA | 0.9745 | 0.478 |  |  | 0.6394 | Ratio (Deletedscore / WTscore) (bait LSB3): 0.7503
YMR109W_1 (protein, UniProt Q04439 1-1219, looked up) Myosin-5: MAILKRGARKKVHQEPAKRSANIKKATFDSSKKKEVGVSDLTLLSKISDEAINENLKKRFLNATIYTYIGHVLISVNPFRDLGIYTDAVMNEYKGKNRLEVPPHVFAIAESMYYNMKSYNENQCVIISGESGAGKTEAAKRIMQYIAAASSTHTESIGKIKDMVLATNPLLESFGCAKTLRNNNSSRHGKYLEIKFNNQFEPCAGNITNYLLEKQRVVSQIKNERNFHIFYQFTKGASDAYRQTFGVQKPEQYVYTAAAGCISAETIDDLQDYQETLKAMRVIGLGQEEQDQIFRMLAAILWIGNVSFIENEEGNAQVRDTSVTDFVAYLLQIDSQLLIKSLVERIMETNHGMKRGSVYHVPLNIVQADAVRDALAKAIYNNLFDWIVSRVNKSLQAFPGAEKSIGILDIYGFEIFEHNSFEQICINYVNEKLQQIFIQLTLKSEQETYEREKIQWTPIKYFDNKVVCDLIEARRPPGIFAAMNDSVATAHADSNAADQAFAQRLNLFTTNPHFDLRSNKFVIKHYAGDVTYDIDGITDKNKDQLQKDLVELIGTTTNTFLATIFPDTVDRESKRRPPTAGDKIIKSANDLVETLSKAQPSYIRTIKPNETKSPNDYDDRQVLHQIKYLGLQENVRIRRAGFAYRQVFEKFVERFYLLSPHCSYAGDYTWQGDTLDAVKYILQDSSIPQQEYQLGVTSVFIKTPETLFALEHMRDRYWHNMAARIQRAWRRFLQRRIDAATKIQRTIRERKEGNKYEKLRDYGTKVLGGRKERRSMSLLGYRAFMGDYLSCNESKSKGAYIKRQVSIKEKVIFSIHGEALHTKFGRSAQRLKKTFLLTPTTLYIVGQTLVQNAMTYTQDYKIDVRNIQAVSLTNLQDDWVAIKLASSGQPDPLINTYFKTELITHLKRLNDKIQIKIGSAIEYQKKPGKLHSVKCQINESAPKYGDIYKSSTISVRRGNPPNSQVHKKPRKKSSISSGYHASSSQATRRPVSIAAAQHVPTAPASRHSKKPAPPPPGMQNKAATRRSVPNPASTLTASQSNARPSPPTAATRATPAATPAAAAMGSGRQANIPPPPPPPPPSSKPKEPMFEAAYDFPGSGSPSELPLKKGDVIYITREEPSGWSLGKLLDGSKEGWVPTAYMKPHSGNNNIPTPPQNRDVPKPVLNSVQHDNTSANVIPAAAQASLGDGLANALAARANKMRLESDDEEANEDEEEDDW | 0.9175 | 0.7054 |  |  |  | Ratio (Deletedscore / WTscore) (bait BOI2): 0.9032; Ratio (Deletedscore / WTscore) (bait HSE1): 0.9954; Ratio (Deletedscore / WTscore) (bait NBP2): 0.9518; Ratio (Deletedscore / WTscore) (bait PIN3): 0.6702
YHR064C_1 (protein, UniProt P38788 1-538, looked up) Ribosome-associated complex …: MSSPVIGITFGNTSSSIAYINPKNDVDVIANPDGERAIPSALSYVGEDEYHGGQALQQLIRNPKNTIINFRDFIGLPFDKCDVSKCANGAPAVEVDGKVGFVISRGEGKEEKLTVDEVVSRHLNRLKLAAEDYIGSAVKEAVLTVPTNFSEEQKTALKASAAKIGLQIVQFINEPSAALLAHAEQFPFEKDVNVVVADFGGIRSDAAVIAVRNGIFTILATAHDLSLGGDNLDTELVEYFASEFQKKYQANPRKNARSLAKLKANSSITKKTLSNATSATISIDSLADGFDYHASINRMRYELVANKVFAQFSSFVDSVIAKAELDPLDIDAVLLTGGVSFTPKLTTNLEYTLPESVEILGPQNKNASNNPNELAASGAALQARLISDYDADELAEALQPVIVNTPHLKKPIGLIGAKGEFHPVLLAETSFPVQKKLTLKQAKGDFLIGVYEGDHHIEEKTLEPIPKEENAEEDDESEWSDDEPEVVREKLYTLGTKLMELGIKNANGVEIIFNINKDGALRVTARDLKTGNAVKGEL | 0.9929 |  |  |  |  | Ratio (Deletedscore / WTscore) (bait BUD14): 0.7471
YCR088W_1 (protein, UniProt P15891 2-592, looked up) Actin-binding protein: ALEPIDYTTHSREIDAEYLKIVRGSDPDTTWLIISPNAKKEYEPESTGSSFHDFLQLFDETKVQYGLARVSPPGSDVEKIIIIGWCPDSAPLKTRASFAANFAAVANNLFKGYHVQVTARDEDDLDENELLMKISNAAGARYSIQTSSKQQGKASTPPVKKSFTPSKSPAPVSKKEPVKTPSPAPAAKISSRVNDNNDDDDWNEPELKERDFDQAPLKPNQSSYKPIGKIDLQKVIAEEKAKEDPRLVQKPTAAGSKIDPSSDIANLKNESKLKRDSEFNSFLGTTKPPSMTESSLKNDDDKVIKGFRNEKSPAQLWAERKAKQNSGNAETKAEAPKPEVPEDEPEGEPDVKDLKSKFEGLAASEKEEEEMENKFAPPPKKSEPTIISPKPFSKPQEPVKAEEAEQPKTDYKKIGNPLPGMHIEADNEEEPEENDDDWDDDEDEAAQPPLPSRNVASGAPVQKEEPEQEEIAPSLPSRNSIPAPKQEEAPEQAPEEEIEEEAEEAAPQLPSRSSAAPPPPPRRATPEKKPKENPWATAEYDYDAAEDNELTFVENDKIINIEFVDDDWWLGELEKDGSKGLFPSNYVSLGN | 0.8735 |  |  |  |  | 
YCR030C_1 (protein, UniProt P25623 1-870, looked up) Suppressor of yeast profilin …: MTEQRTKYADSILTTKSPYEATETIRIRLSQVKLLNKDFYLLFKELANLKRNYAQQLRKIIAENEDITKILNAQMIESNVLTPQEMSAFRFNSLGELRNVWDTVIEELKSDLKSSTEYYNTLDQQVVRELKESVENNTSWRESKDLHSKLSKNAASIEHYSKNNENSSHLEEARRQWDQQSPYLFELFETIDYNRLDTLKNCMLRFQTSFSDYLLNTTKECETVMTKFLAFEPQSEIDRFAKDASQYNFQLSSSSKEVVPNNASPASATGARPVSVSNGAANTEREKKSPQKDKRKSAFGNIGHRLASASSSLTHNDLMNNEFSDSTNNSSLKSKKSSHTLRSKVGSIFGRNKTKNKRQQQSSSNSHIQASITETPNNSSTRVSSTATSSIYQKQRRPTYSSSKSNNWTPGEASDTPPLPPHATPKNVDAPVTADTPPAQTFTPSEVPPSTPQQSSPPTAKEPDSSNLPKTVPISISQPPLQPQSKTKPLPVEPASPSISLPTATVDNQPSGQVDSRPLHIRAPALPPSRKQNFIHNRDSQLYDSLPNHGSGATPTSSSLSSIPQERPVSTLSSQITGELRELNPQATGSSTSLVGQSLFQHSSLDTSQFGLNASIAEVLNASFKDGMLQNSQLIGEIALNYLPNSVMNSPLPIGINLRINNGAKFEKVILNQAFIERVAPEEFKVNPSFIDSRTLGAIKYSIKEPIAPIVIHPVWRFESHQASVVLTVKMSPSLPDEISQIVIEDLVVFVNIDGANATSALSKPQGSFSKEKKRITWRFKEPVVLTRNGEGQRLIARFITDGLAHESAKGVITKFTISETDNVALPHSGAGSGITLTCQELDENNPFGGEWLDVNTKRTLTTGNYHGLA | 1.033 | 0.5499 | 0.7978 | 0.5102 | 0.6932 | 
